{"source": "patent US20070014736A1", "about": "“Methods of delivering corticotroph-derived glycoprotein hormone” (priority 2005, published 2007)", "key": {"human primary adipocytes": {"tested_on": "human primary adipocytes", "assay": "CRE-luciferase reporter assay in human primary adipocytes", "format": "cell-based", "source_text": "(§1) Differentiated murine 3T3 L1 adipocytes and primary human adipocytes were used to study signal transduction of CGH. 3T3 L1 fibroblasts were differentiated into adipocytes and the cells were transduced with recombinant adenovirus containing a reporter construct, a firefly luciferase gene under the control of cAMP response element (CRE) enhancer sequences. This assay system detects cAMP-mediated gene induction downstream of activation of Gs-coupled G-protein coupled receptors (GPCR's). […] In a separate experiment, undifferentiated 3T3 L1 fibroblasts were transduced with the recombinant adenovirus. […] In another experiment, human primary adipocytes were also transduced with the recombinant adenovirus containing a reporter construct. Treatment of the human adipocytes with isoproterenol produced a 17-fold induction of luciferase expression.\n(§2) Cells were cultured at 37° C. in an 8% CO2 humidified incubator. Cells were seeded to collagen-coated 96-well plates (Becton Dickinson, cat. #356407) at a density of 5,000 cells per well. […] Luciferase activity was measured on a microplate luminometer (PerkinElmer Life Sciences, Inc., model LB 96V2R) following automated injection of 40 μl of luciferase assay substrate into each well. […]"}, "adrenal glands": {"tested_on": "adrenal glands", "assay": "Intraperitoneal recombinant CGH for two weeks, adrenal weight", "format": "in vivo, mice", "conditions": "0.25 mg/kg CGH i.p. daily, day 15, female C57BL/6", "source_text": "Summary: Mice were exposed to CGH through infection with adenovirus particles expressing GPHA2 and GPHB5, leading to overexpression and secretion of CGH from the liver of these animals. […] The hypertrophy was apparent in the inner cortical layers, the zona fasciculata and the zona reticularis. Similarly, mice were exposed to CGH through intraperitoneal injection of recombinant CGH protein alone, recombinant CGH protein along with the glucocorticoid Dexamethasone (Dex), Dex alone, or PBS alone daily for two weeks.\nSixteen C57BL/6 female mice at 8 weeks of age were separated into four groups. The first group received daily injections of 0.25 mg/kg of recombinant CGH protein intraperitoneally. The second group received daily injections of PBS using the same procedure. The third group received daily injections of 0.25 mg/kg of CGH plus 0.05 mg/kg Dex and the final group received 0.5 mg/kg Dex, alone. Animals were sacrificed on day 15 and the adrenal glands were isolated and weighed. Example 5 describes the expression and purification of recombinant CGH protein used in this experiment."}, "[1]": {"tested_on": "Delayed Type Hypersensitivity (DTH) reaction", "assay": "Delayed Type Hypersensitivity (DTH), change in ear thickness", "format": "in vivo, mice"}, "[2]": {"tested_on": "differentiated 3T3 L1 adipocytes", "assay": "CRE-luciferase reporter assay in differentiated 3T3 L1 adipocytes", "format": "cell-based, murine", "source_text": "as §1, §2"}, "[3]": {"conditions": "Expt 1, 0.2 mg/kg CGH i.p. at challenge (d7), 24 h"}, "[4]": {"conditions": "Expt 1, 2.0 mg/kg CGH i.p. at challenge (d7), 24 h"}, "[5]": {"conditions": "Expt 2, 0.2 mg/kg CGH i.p. at challenge (d7)"}, "[6]": {"conditions": "Expt 2, 2.0 mg/kg CGH i.p. at challenge (d7)"}, "[7]": {"conditions": "Expt 3, 0.2 mg/kg CGH i.p. at sensitization (d0-4)"}, "[8]": {"conditions": "Expt 3, 2.0 mg/kg CGH i.p. at sensitization (d0-4)"}}, "data": [{"molecule": "CGH: heterodimeric protein hormone comprised of alpha subunit GPHA2 and beta subunit GPHB5, recombinantly produced in CHO cells (protein) chain 1: QEAVIPGCHLHPFNVTVRSDRQGTCQGSHVAQACVGHCESSAFPSRYSVLVASGYRHNITSVSQCCTISGLKKVKVQLQCVGSRREELEIFTARACQCDMCRLSRY chain 2: ASSGNLRTFVGCAVREFTFLAKKPGCRGLRITTDACWGRCETWEKPILEPPYIEAHHRVCTYNETKQVTVKLPNCAPGVDPFYTYPVAIRCDCGACSTATTECETI", "values": [{"measurement": "induction of luciferase expression / reporter gene", "setting": "human primary adipocytes", "result": 14, "unit": "fold"}, {"measurement": "Average adrenal weight/100 g body weight", "setting": "adrenal glands", "result": "22.26 +/− 0.99"}, {"measurement": "Change in ear thickness, left ear (PBS)", "setting": "[1]; [3]", "result": "0.17 +/− 0.95 ×10^−3 inch"}, {"measurement": "Change in ear thickness, right ear (OVA)", "setting": "[1]; [3]", "result": "3.48 +/− 0.79 ×10^−3 inch"}, {"measurement": "Change in ear thickness, left ear (PBS)", "setting": "[1]; [4]", "result": "0.21 +/− 0.34 ×10^−3 inch"}, {"measurement": "Change in ear thickness, right ear (OVA)", "setting": "[1]; [4]", "result": "2.48 +/− 1.05 ×10^−3 inch"}, {"measurement": "Change in ear thickness, left ear (PBS)", "setting": "[1]; [5]", "result": "0.65 +/− 0.63 ×10^−3 inch"}, {"measurement": "Change in ear thickness, right ear (OVA)", "setting": "[1]; [5]", "result": "4.41 +/− 0.95 ×10^−3 inch"}, {"measurement": "Change in ear thickness, left ear (PBS)", "setting": "[1]; [6]", "result": "0.67 +/− 1.05 ×10^−3 inch"}, {"measurement": "Change in ear thickness, right ear (OVA)", "setting": "[1]; [6]", "result": "3.92 +/− 1.00 ×10^−3 inch"}, {"measurement": "Change in ear thickness, left ear (PBS)", "setting": "[1]; [7]", "result": "1.31 +/− 0.42 ×10^−3 inch"}, {"measurement": "Change in ear thickness, right ear (OVA)", "setting": "[1]; [7]", "result": "4.06 +/− 0.73 ×10^−3 inch"}, {"measurement": "Change in ear thickness, left ear (PBS)", "setting": "[1]; [8]", "result": "1.11 +/− 0.49 ×10^−3 inch"}, {"measurement": "Change in ear thickness, right ear (OVA)", "setting": "[1]; [8]", "result": "4.57 +/− 1.58 ×10^−3 inch"}, {"measurement": "induction of luciferase expression", "setting": "[2]", "result": 27, "unit": "fold"}]}]}
